# From US20260234247A1 (published 2026)
# What was measured:
# [1] = biological target: T1, human LILRB1 on CHOK1 cells (human, UniProt Q8NHL6 24-650); assay: cell-based RBA (FACS): blocking of HLA-G binding to CHOK1-hLILRB1 cells
# T1 construct: whole, on cells; also called CHOK1-hLILRB1; CHOK1-LILRB1
# [2] = biological target: T2, human LILRB2 on CHOK1 cells (human, UniProt Q8N423 22-597); assay: FACS binding, CHOK1-hLILRB2 cells
# T2 construct: whole, on cells; also called CHOK1-hLILRB2; CHOK1-LILRB2
# T2 sequence (Q8N423 22-597): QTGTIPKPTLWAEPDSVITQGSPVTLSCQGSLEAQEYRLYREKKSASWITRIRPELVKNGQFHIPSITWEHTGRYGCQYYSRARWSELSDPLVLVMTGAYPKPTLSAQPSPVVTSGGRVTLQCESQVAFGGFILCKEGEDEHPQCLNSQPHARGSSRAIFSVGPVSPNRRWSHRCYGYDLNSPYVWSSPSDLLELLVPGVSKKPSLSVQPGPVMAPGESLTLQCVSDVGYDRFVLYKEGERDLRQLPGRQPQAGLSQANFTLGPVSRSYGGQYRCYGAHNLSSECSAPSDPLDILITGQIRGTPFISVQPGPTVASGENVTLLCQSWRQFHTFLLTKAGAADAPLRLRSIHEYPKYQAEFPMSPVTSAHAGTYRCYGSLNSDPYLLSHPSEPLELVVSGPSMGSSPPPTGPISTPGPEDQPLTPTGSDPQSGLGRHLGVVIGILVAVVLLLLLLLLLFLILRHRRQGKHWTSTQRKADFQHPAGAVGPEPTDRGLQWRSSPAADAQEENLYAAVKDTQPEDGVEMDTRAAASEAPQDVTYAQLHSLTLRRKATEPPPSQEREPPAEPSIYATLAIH
# [3] = biological target: T1, human LILRB1 on CHOK1 cells; assay: FACS binding, CHOK1-hLILRB1 cells
# T1 sequence (Q8NHL6 24-650): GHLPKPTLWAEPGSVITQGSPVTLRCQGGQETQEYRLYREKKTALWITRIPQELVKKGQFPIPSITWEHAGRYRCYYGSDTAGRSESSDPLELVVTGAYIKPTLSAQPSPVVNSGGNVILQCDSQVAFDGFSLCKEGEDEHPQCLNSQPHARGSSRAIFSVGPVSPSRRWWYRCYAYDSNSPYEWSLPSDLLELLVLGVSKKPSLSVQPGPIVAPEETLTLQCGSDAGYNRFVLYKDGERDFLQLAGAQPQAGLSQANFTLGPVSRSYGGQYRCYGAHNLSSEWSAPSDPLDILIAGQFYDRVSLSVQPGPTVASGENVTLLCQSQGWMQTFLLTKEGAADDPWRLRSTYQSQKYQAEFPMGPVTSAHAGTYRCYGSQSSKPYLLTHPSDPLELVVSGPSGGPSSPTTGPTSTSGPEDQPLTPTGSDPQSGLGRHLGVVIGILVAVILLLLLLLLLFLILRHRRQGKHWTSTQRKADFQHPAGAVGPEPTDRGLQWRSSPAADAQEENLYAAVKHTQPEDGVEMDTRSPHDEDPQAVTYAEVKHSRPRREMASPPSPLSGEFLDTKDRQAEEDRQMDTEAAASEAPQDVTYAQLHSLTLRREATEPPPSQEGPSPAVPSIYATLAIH
Binder,EC50 [1],Top Inhibition (%) [1],binding result [2],EC50 [3]
"LK-RB1-5 (antibody, human IgG4 S228P, kappa, V domains shown) VH: QVQLQQPGAELVKPGASVKLSCKASGYTFTDFWIHWVKQRPGQGLEWIGMIHPNSGSTNFNEKFRAKATLTVDKSSSTAYMRLSSLTSEDSAVYYCARSGDGYSNPMDYWGQGTSVTVSS VL: QIVLSQSPAILSASPGEKVTLTCRASSSVSYMHWYQQKPGSSPKPWIYATSNLASGVPVRFSGSGSGTSYSLTISRMQTEDAATYYCQQWRRSPYTFGGGTKLEIKR",1.97 nM,23%,no binding,1.4 nM
"LK-RB1-22 (antibody, human IgG4 S228P, kappa, V domains shown) VH: QVQLKESGPGLVAPSQSLSITCTVSGFSLTSYGVSWVRQPPGKGLEWLGIIWGDGNTNYHSALTSRLSISKDNSKSQVFLKLNSLRTDDTATYYCAKPHWDHYSMDYWGQGTSVTVSS VL: DIQMTQTTSSLSASLGDRVTISCRASQDISNFLNWYQQKPDGTVKLLIYYTSRLHSGAPSRFSGSGSGTDYSLTISNLDQEDIATYFCQQGNTLPLTFGAGTKLELKR",1.4 nM,100%,no binding,1.76 nM
"LK-RB1-13 (antibody, human IgG4 S228P, kappa, V domains shown) VH: QVTLKESGPGIVKPSQTLSLTCSFSGFSLSISGTGIGWIRQPSGKGLEWLAHIWWDDDKYYNPSLKSQVTISKDTSTKQVFLNITSVDTADTATYYCTRTELGRGDFWGQGTSVTVSS VL: DILLTQSPAILSVSPGDRVSFSCRASQSTGTNIHWYQRRTNGSPRLLIKYGSESISGIPSRFSGSGTGTDFTLTINSVESEDIADYYCQQSYSWPYTFGGGTKLEIKR",0.42 nM,81.8%,no binding,0.2 nM
"LK-RB1-4 (antibody, human IgG4 S228P, kappa, V domains shown) VH: QVQLQQPGAELVKPGASVKLPCKTSGYTFTSYWMHWVKQRPGRGLEWIGRIDPHYSGTKYNEKFKNKATMTVDTPSSTAYMQLSSLTSEDSAVYYCARFDGDPYYFDYWGPGTTLTVSS VL: DIVMTQSQKFMSTSVGDRVSVTCKASQNVGTNVAWYKQKAGQSPKAVIYSASYRYSGVPDRFTGSGSGTDFTLSISNVQSEDLAEYFCQQYNNNPFTFGSGTKLEIKR",1.74 nM,85.9%,no binding,1 nM
"LK-RB1-12 (antibody, human IgG4 S228P, kappa, V domains shown) VH: QVQLQQSGTELVRPGSSVMISCKASGYAFSTYWMDWVKQRPGQGLEWIGQIYPGDGATNYNGKFKGKATLTADKSSITAYMHLSSLTSEDSAVYFCLRSRDYDGWFFDVWGAGTTVTVSS VL: DIVMTQSHKFMSTSIGDRVSITCKASQDVSSAVAWYQQKPGQSPKLLIYWASTRHTGVPDRFTGSGSGTDYTLTFSSVQAEDLALYYCQQHYSTPWTFGGGTKLEIKR",0.37 nM,79.2%,no binding,0.17 nM
"LK-RB1-11 (antibody, human IgG4 S228P, kappa, V domains shown) VH: QVTLKESGPGILQPSQTLSLTCSFSGFSLKTSGMSVGWIRQPSGKGLEWLAHIWWNDDKYYNPVLKGRLTISKDTSNNLVFLKIASVVSTDTATYYCVRYGNSHGYWYFDVWGTGTTVTVSS VL: NIVLTQSPASLAVSLGQRATISCRASESVDSYGNNFIHWYQQKPGQPPKVLIYYASNLEAGVPARFSGSGSRTDFTLTIDPVEAEDAATYYCQQNNEDPYTFGGGTKLEIER",1.34 nM,78.9%,no binding,0.61 nM
"LK-RB1-20 (antibody, human IgG4 S228P, kappa) heavy: not shown light: DIQMNQSPSSLSASLGDTITITCHASQNIDFWLSWYQQKPGNIPKLLIYKASNLHTGVPSRFSGSGSGTGFTLTISSLQPEDIATYYCQQGQSYPLTFGAGTKLELKRTVAAPSVFIFPPSDEQLKSGTASVVCLLNNFYPREAKVQWKVDNALQSGNSQESVTEQDSKDSTYSLSSTLTLSKADYEKHKVYACEVTHQGLSSPVTKSFNRGEC",0.52 nM,97.4%,no binding,0.85 nM
"LK-RB1-10 (antibody, human IgG4 S228P, kappa, V domains shown) VH: QVTLKESGPGILKPSQTLSLTCSFSGFSLSTSGTGVGWIRQPSGKGLEWLAHIWWNDDKYYKPSLKRQLTISKDTSRNQVFLKITSVDTADTATYYCTRTELGRGDYWGQGTSVTVSS VL: DILLTQSPAILSVSPGERVSFSCRASQSIGTNIHWYQQRMNGSPRLIIKYASELISGIPSRFSGSGSGTDFTLSINSVESEDIADYYCQQSYGWPYTFGGGTKLETKR",1.04 nM,83.1%,no binding,0.7 nM
"LK-RB1-14 (antibody, human IgG4 S228P, kappa, V domains shown) VH: QVTLKESGPGILKPSQTLSLTCSFSGFSLSTSGMGVGWIRQPSGKGLEWLAHIWWDDDKYYNPSLKSQLTISKDTSRNQVFLKITSVDTADTATYYCARTELGRGDSWGQGTSVTVSS VL: DILLTQSPAILSVSPGERVSFSCRASQSIGTSIHWYQQRTNGSPRLLIKYASESISGIPSRFSGSGSGTDFTLSINSVESEDIADYYCQQSYSWPYTFGGGTKLEIKR",0.65 nM,81.2%,no binding,0.47 nM

# The remaining binders from weak to strong by EC50 [1], led by results:
EC50 [1],Top Inhibition (%) [1],binding result [2],EC50 [3],Binder
2.56 nM,86.9%,no binding,1.14 nM,"LK-RB1-8 (antibody, human IgG4 S228P, kappa, V domains shown) VH: QVQLQQSGAELVRPGTSVKVSCKASGYAFSNYLIEWVKQRPGQGLEWIGVINPGSDGSTYNEKFKGKATLTADKSSNTAYMQLSSLTSEDSAVYFCARGDYGRSYGMDYWGQGTSVTVSS VL: DIVMTQSQKFMSTTVGDRVSITCKASQNVGTAVVWYQQKPGQSPKLLIYSASNRYTGVPDRFTGSGSGTDFTLTISNMQSEDLADYFCQQYSSYMYTFGGGTKLEIKR"
0.79 nM,67.3%,no binding,0.64 nM,"LK-RB1-15 (antibody, human IgG4 S228P, kappa, V domains shown) VH: QVTLKESGPGIVKPSQTLSLTCSFSGFSLSISGTGIGWIRQPSGKGLEWLAHIWWDDDKYYNPSLKSQVTISKDTSTKQVFLNITSVDTADTATYYCTRTELGRGDFWGQGTSVTVSS VL: DILLTQSPAILSVSPGDRVSFSCRASQSIGTNIHWYQRRTNGSPRLLIKYGSESISGIPSRFSGSGTGTDFTLTINSVESEDIADYYCQQSYSWPYTFGGGTKLEIKR"
0.78 nM,88.1%,no binding,0.34 nM,"LK-RB1-9 (antibody, human IgG4 S228P, kappa, V domains shown) VH: QIQLVQSGPELKKPGETVKISCTASGYTFTTYGMSWVKQAPGKGLKWMGWINTYSGVPTYADDFKGRFAFSLETSASTAYLEINNVKNEDTATYFCARRRRTYHGYLCFDYWGQGTTLTVSS VL: DIQMTQSPVSLSASVGETVTITCETSENIYGALNWYQRKQGKSPQLLIYGATNLADGMSSRFSGSGSGRQYSLEISSLHPDDVASYYCQNVLNTPWTFGGGTKLEIKR"
0.54 nM,69.7%,no binding,0.22 nM,"LK-RB1-6 (antibody, human IgG4 S228P, kappa, V domains shown) VH: QIQLVQSGPELKKPGETVKISCKASGYTFTTYGMSWVKQAPGKDLKWMGWINTFSGVPACADDFQGRFDFSAEPSDSTAHLQINNLKNEDTATYFCARRSYYGSRGWYFDVWGTGTTVTVSS VL: DIVMTQSHKFMSTSVGDRVSITCTASEDVNTAVAWYQQKPGQSPKLLIYWASTRHTGVPDRFTGSGSGTDYTLTISSVQTEDLALYYCQQHYNTPYTFGGGTKLEIKR"
0.54 nM,69.7%,no binding,0.22 nM,"LK-RB1-7 (antibody, human IgG4 S228P, kappa, V domains shown) VH: QIQLVQSGPELKKPGETVKISCKASGYTFTTYGMSWVKQAPGKDLKWMGWINTFSGVPACADDFQGRFDFSAEPSDSTAHLQINNLKNEDTATYFCARRSYYGSRGWYFDVWGTGTTVTVSS VL: DVQMIQSPSSLSASLGDIVTMTCQASQDTTINLNWFQQKPGKVPKLLIYGASNLEDGVPSRFSGSSFGTDFTLTISSLEDEDMATYFCLQHTYLPRTFGGGTKLEIRR"
0.53 nM,98.2%,no binding,0.81 nM,"LK-RB1-16 (antibody, human IgG4 S228P, kappa, V domains shown) VH: QVQLKESGPGLVAPSQSLSITCTVSGFSLISNAISWVRQPPGKGLEWLGVIWGDGNTIYHSALRSRLTISKDNSKSQVFLKLNSLQIDDTATYYCAKANWDGYYFDYWGQGTTLTVSS VL: DIQMNQSPSSLSASLGDTITITCHASQSVDFWLNWYQQKPGNIPKLLISKASNLHTGVPSRFSGSGSGTTFTLTISSLQPEDIATYYCQQGQSYPLTFGSGTKLEIKR"
0.53 nM,98.1%,no binding,1.88 nM,"LK-RB1-21 (antibody, human IgG4 S228P, kappa, V domains shown) VH: QVQLQQPGAELVKPGASVKMSCKASGYIFTDYWTTWVKQRPGQGLEWIGDIYPVSGSTNYNEKFKNKATLTVDTSSSTAYMQLSSLTSEDSAVYYCARALGRRYYFDYWGQGTTLTVSS VL: DIVMTQSHKFMSTSIGDRVSITCKASQDVSTAVAWCQQKPGQSPKSLIYSASYRYTGIPDRFTGSGSGTDFTFTISSVQAEDLAVYYCQQHYTNPVTFGTGTKLELKR"
0.49 nM,98.2%,no binding,0.3 nM,"LK-RB1-19 (antibody, human IgG4 S228P, kappa, V domains shown) VH: QVQLKESGPGLVAPSQNLSITCTVSGFSLTSYGVSWVRQPPGKGLEWLGIIWGDGNTDYHSALISRLSIRKDNSKSQVFLKLNSLKSDDTATYYCAKPHWEYYTMDYWGQGTSVTVSS VL: DIQMTQTTSSLSASLGDRVTISCRASQDISNFLNWYQQKPDGTVKLLIYSTSRLHSGVPSRFSGSGSGTDYSLTIANLEQEDVATYFCQQGNTLPLTFGAGTKLELKR"
0.47 nM,98.7%,no binding,0.58 nM,"LK-RB1-18 (antibody, human IgG4 S228P, kappa, V domains shown) VH: QVQLKESGPGLVAPSQSLSITCTVSGFSLTNSGVTWIRQPPGKGLEWLGVIWGDGSTNYHSALISRLSISKDNSKSQVFLKLNSLQTDDTATYYCAKPHWDYYNMDYWGQGTSVTVSS VL: DIQMTQTPSSLSASLGDRVTISCRASQDISNYLNWYQQKPDGTVKLLIYFTSRLHSGVPSRFSGSGSGTDYSLTISNLEQEDFATYFCQQGITLPLTFGAGTKLELKR"
